US20120077731A1 (Ablynx, published 2012)
Changes are numbered by the printed parent chain. Several values for one entry are separate records, joined by “and”; a condition that tells them apart may be missing. Equal entries are not always repeated.

T1: Human soluble IL-6R (human, UniProt P08887 20-358)
T1 construct: Soluble recombinant form; biotinylated in some assays; also called hIL-6R; human IL-6R
T1 sequence (looked up): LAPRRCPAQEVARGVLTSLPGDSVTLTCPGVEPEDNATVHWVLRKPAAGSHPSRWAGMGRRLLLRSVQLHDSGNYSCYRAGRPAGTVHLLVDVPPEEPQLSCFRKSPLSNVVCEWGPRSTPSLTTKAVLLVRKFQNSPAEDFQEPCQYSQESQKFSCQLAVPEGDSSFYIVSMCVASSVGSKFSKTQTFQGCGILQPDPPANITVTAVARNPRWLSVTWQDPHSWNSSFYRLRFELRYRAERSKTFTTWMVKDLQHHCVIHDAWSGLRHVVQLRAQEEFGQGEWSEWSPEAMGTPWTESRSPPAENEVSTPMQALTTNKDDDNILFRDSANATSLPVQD

T2: Cyno plasma sIL-6R (cynomolgus monkey, UniProt A0A2K5WN54 60-396)
T2 construct: also called cynomolgus sIL-6R
T2 sequence: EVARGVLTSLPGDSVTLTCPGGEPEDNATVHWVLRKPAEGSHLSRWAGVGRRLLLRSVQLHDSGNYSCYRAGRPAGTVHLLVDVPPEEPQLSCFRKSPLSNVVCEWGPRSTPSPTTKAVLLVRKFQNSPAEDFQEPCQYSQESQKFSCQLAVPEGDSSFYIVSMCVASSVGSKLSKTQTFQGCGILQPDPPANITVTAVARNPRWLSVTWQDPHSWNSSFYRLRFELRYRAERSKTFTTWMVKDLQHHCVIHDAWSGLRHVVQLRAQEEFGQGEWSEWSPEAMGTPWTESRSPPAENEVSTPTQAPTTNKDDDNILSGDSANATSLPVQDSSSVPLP

T3: Human plasma sIL-6R (human, UniProt P08887 20-355, limits assumed)
T3 construct: also called plasma-derived human IL-6R
T3 sequence (looked up): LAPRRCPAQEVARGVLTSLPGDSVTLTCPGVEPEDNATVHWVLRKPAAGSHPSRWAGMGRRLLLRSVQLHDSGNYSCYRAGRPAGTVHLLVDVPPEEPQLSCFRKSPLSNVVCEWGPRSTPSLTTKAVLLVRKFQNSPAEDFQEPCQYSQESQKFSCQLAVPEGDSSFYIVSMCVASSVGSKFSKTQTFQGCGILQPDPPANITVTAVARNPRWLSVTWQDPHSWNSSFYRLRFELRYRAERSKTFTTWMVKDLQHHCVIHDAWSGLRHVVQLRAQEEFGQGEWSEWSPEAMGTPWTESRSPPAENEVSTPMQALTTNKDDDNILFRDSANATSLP

T4: Cyno IL-6R (cynomolgus monkey, UniProt A0A2K5WN54 60-396)
T4 construct: also called cynomolgus monkey IL-6R; recombinant cyno sIL-6R
T4 sequence: T2 sequence

T5: Mouse IL-6R (mouse, UniProt P22272 20-364, limits assumed)
T5 construct: also called mouse sIL-6R
T5 sequence (looked up): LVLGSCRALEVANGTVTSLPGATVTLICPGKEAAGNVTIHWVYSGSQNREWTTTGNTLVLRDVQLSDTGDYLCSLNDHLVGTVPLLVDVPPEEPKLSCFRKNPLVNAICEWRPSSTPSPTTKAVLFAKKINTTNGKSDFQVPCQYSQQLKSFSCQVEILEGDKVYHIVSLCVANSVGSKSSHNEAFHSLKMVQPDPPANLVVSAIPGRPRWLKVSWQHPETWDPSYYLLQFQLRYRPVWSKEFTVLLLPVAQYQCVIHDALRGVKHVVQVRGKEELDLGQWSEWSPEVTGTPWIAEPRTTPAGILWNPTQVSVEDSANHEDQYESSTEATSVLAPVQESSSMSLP

T6: Human membrane IL-6R on cells (human, UniProt P08887 20-468)
T6 sequence (looked up): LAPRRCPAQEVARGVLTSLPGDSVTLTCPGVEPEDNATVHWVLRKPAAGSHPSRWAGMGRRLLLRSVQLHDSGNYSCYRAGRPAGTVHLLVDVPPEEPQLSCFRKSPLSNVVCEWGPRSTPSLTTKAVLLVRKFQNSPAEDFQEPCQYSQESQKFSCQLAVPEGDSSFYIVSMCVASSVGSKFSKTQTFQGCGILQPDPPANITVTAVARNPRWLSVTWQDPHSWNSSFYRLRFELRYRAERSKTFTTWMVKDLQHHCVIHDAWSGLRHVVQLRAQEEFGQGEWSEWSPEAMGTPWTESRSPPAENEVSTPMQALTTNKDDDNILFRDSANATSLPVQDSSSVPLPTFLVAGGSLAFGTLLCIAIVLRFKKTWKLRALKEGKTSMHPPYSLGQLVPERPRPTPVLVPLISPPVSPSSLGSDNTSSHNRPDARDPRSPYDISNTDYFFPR

B1: PMP20E10 (VHH)
VHH: EVQLVESGGGLVQPGGSLRLSCAASGSVFKINVMAWYRQAPGKGRELVAGIVSGGSTSYADSVKGRFTISRDNAKNTLYLQMNSLRPEDTAVYYCAFITTESDYDLGRRYWGQGTLVTVSS
notes: not shown: c-myc and (His)6 tags
B2: PMP20F6 (VHH)
VHH: B1 VHH with E101N
notes: as for B1
B3: PMP21D11 (VHH)
VHH: B1 VHH with S53T
notes: as for B1
B4: PMP21A10 (VHH)
VHH: B1 VHH with V28I, S53T
notes: as for B1
B5: IL6R201 (VHH)
VHH: EVQLVESGGGLVQPGGSLRLSCAASGFTFSDYDIGWFRQAPGKGREGVSGISSSDGNTYYADSVKGRFTISRDNAKNTLYLQMNSLRPEDTAVYYCAAEPPDSSWYLDGSPEFFKYWGQGTLVTVSS
notes: also called tagless version of IL6R75; 16R201/75
B6: IL6R03 (VHH)
VHH: EVQLVESGGGLVQAGGSLRLSCAASGSIFKVNAMGWYRQAPGKQRELVAGIISGGSTNYADSVKGRLTISRDNAKNTVYLQMNSLKPEDTAVYYCSFVTTNSDYDLGRDYWGQGTQVTVSS
notes: also called PMP31A4; not shown: C-terminal c-myc and (His)6 tags
B7: IL6R61 (VHH)
VHH: B6 VHH with A14P, Q44G, K86R, Q116L
B8: IL6R63 (VHH)
VHH: B6 VHH with A14P, Q44G, V78L, K86R, Q116L
B9: IL6R64 (VHH)
VHH: B6 VHH with A14P, Q44G, K86R, S96A, Q116L
B10: IL6R62 (VHH)
VHH: B6 VHH with A14P, Q44G, L67F, K86R, Q116L

What was measured:
Human soluble IL-6R [1] = target: T1, Human soluble IL-6R; assay: Biacore T100
Human soluble IL-6R [2] = target: T1, Human soluble IL-6R; assay: Biacore T100; value marked estimated
Cyno plasma sIL-6R [3] = target: T2, Cyno plasma sIL-6R; assay: plasma potency assay, cyno plasma, 2.4 nM IL6; blocked ligand IL-6
Protocol: (§1) All 5 affinity matured Nanobodies and the sequence optimized Nanobody were also tested in a plasma potency assay. […] TMB was used as substrate.

Human plasma sIL-6R [4] = target: T3, Human plasma sIL-6R; assay: plasma potency assay, human plasma, 2.4 nM IL6; blocked ligand IL-6
Protocol: as §1

Human soluble IL-6R [5] = target: T1, Human soluble IL-6R; assay: Biacore T100, IL-6R covalently coupled
Human plasma sIL-6R [6] = target: T3, Human plasma sIL-6R; assay: plasma potency assay, human plasma, 42 nM IL6; blocked ligand IL-6
Protocol: as §1

Cyno plasma sIL-6R [7] = target: T2, Cyno plasma sIL-6R; assay: plasma potency ELISA, cyno plasma + human IL-6 50 ng/mL; sIL-6R captured on BN-12, bound IL-6 detected; blocked ligand IL-6
Cyno IL-6R = target: T4, Cyno IL-6R; assay: SPR Biacore 3000, cyno IL-6R amine-coupled to CM5
Protocol: Remaining reactive groups were inactivated. […] Each sample was injected for 4 min at a flow rate of 45 μl/min to allow for binding to chip-bound antigen. Next, binding buffer without Nanobody was sent over the chip at the same flow rate to allow for dissociation of bound Nanobody.

Human plasma sIL-6R [8] = target: T3, Human plasma sIL-6R; assay: plasma potency ELISA, human plasma + human IL-6 50 ng/mL; sIL-6R captured on BN-12, bound IL-6 detected; blocked ligand IL-6
Human soluble IL-6R [9] = target: T1, Human soluble IL-6R; assay: summary table C-13 of Nanobody characteristics, Kd on IL-6R
Protocol: (§2) Nanobodies were injected at 5 different concentrations between 1 and 50 nM. Flow rate was 45 μl/min in all experiments. Association and dissociation phase were 3 and 10 min, respectively. The chip was regenerated using Glycine/HCl pH 1.5.

Human soluble IL-6R [10] = target: T1, Human soluble IL-6R; assay: Alphascreen IL-6/IL-6R competition (IL-6R 0.3 nM, bio-IL-6 3 nM); row EC50 of the fit table, axis [competitor], M; blocked ligand IL-6
Human soluble IL-6R [11] = target: T1, Human soluble IL-6R; assay: Alphascreen IL-6/IL-6R competition with purified Nanobody; row EC50 of the table, axis [inhibitor], M; blocked ligand IL-6
Human soluble IL-6R [12] = target: T1, Human soluble IL-6R; assay: SPR Biacore 3000, IL-6R amine-coupled to CM5
Protocol: as §2

Mouse IL-6R = target: T5, Mouse IL-6R; assay: ELISA: plate coated with 1 µg/ml mouse IL-6R, 500 nM Nanobody, anti-myc + anti-mouse-HRP
Protocol: Detection was performed with anti-myc and anti-mouse-HRP as first and second antibody respectively.

Human soluble IL-6R [13] = target: T1, Human soluble IL-6R; assay: inhibition of the IL-6/IL-6R interaction, summary table C-13
Protocol: (§3) Finally streptavidin donor beads were added and after 1 hour incubator the plate was read on the Envision microplate reader.

Human soluble IL-6R [14] = target: T1, Human soluble IL-6R; assay: Biacore, binding to IL-6R (parent value)
[15] = target: T6, Human membrane IL-6R on cells; assay: cell-based or functional assay
Human soluble IL-6R [16] = target: T1, Human soluble IL-6R; assay: Alphascreen, inhibition of bio-IL-6 binding to IL-6R
Protocol: as §3

[17] = target: T6, Human membrane IL-6R on cells; assay: cell-based or functional assay; remark: listed apart in the source
Human soluble IL-6R [18] = target: T1, Human soluble IL-6R; assay: competition for IL-6R, competitor reference Fab, summary table C-13
[19] = target: T6, Human membrane IL-6R on cells; assay: cell-based or functional assay; remark: listed apart in the source
Human soluble IL-6R [20] = target: T1, Human soluble IL-6R; assay: Alphascreen, 100 nM Nanobody, 0.4 nM bio-IL-6R; competitor: reference Fab
Human soluble IL-6R [21] = target: T1, Human soluble IL-6R; assay: Biacore off-rate, periplasmic extract
[22] = target: T6, Human membrane IL-6R on cells; assay: cell-based or functional assay; remark: listed apart in the source
Human soluble IL-6R [23] = target: T1, Human soluble IL-6R; assay: Alphascreen, inhibition of bio-IL-6 binding to IL-6R; remark: listed apart in the source
Protocol: Finally streptavidin donor beads were added and after 1 hour incubation the plate was read on the Envision microplate reader. Parental clones were included as reference.

Human soluble IL-6R [24] = target: T1, Human soluble IL-6R; assay: Biacore, binding to IL-6R

Binder | Kd (Human soluble IL-6R [1]) | kon (Human soluble IL-6R [2]) | IC50 (Cyno plasma sIL-6R [3]) | IC50 (Human plasma sIL-6R [4]) | koff (Human soluble IL-6R [5]) | IC50 (read off the curve) (Human plasma sIL-6R [6]) | IC50 (Human soluble IL-6R [10]) | fold difference of IC50 to IL6R03 (Human soluble IL-6R [23]) | Kd (Human soluble IL-6R [24]) | koff (Human soluble IL-6R [24]) | kon (Human soluble IL-6R [24]) | further results
B1 | 0.033 nM | ~1e+06 M⁻¹ s⁻¹ | 0.1 nM | 0.13 nM | 3.3e-05 s⁻¹ | ~0.4 nM | – | – | – | – | – | –
B2 | 0.033 nM | ~1e+06 M⁻¹ s⁻¹ | 0.07 nM | 0.13 nM | 3.3e-05 s⁻¹ | ~0.4 nM | – | – | – | – | – | –
B3 | 0.035 nM | ~1e+06 M⁻¹ s⁻¹ | – | 0.13 nM | 3.5e-05 s⁻¹ | ~0.4 nM | – | – | – | – | – | –
B4 | 0.012 nM | ~1e+06 M⁻¹ s⁻¹ | 0.08 nM | 0.1 nM | 1.2e-05 s⁻¹ | ~0.4 nM | – | – | – | – | – | –
B5 | – | – | – | – | – | – | – | – | – | – | – | IC50 (read off the curve) (Cyno plasma sIL-6R [7]): ~0.6 nM; Kd (Cyno IL-6R): 28.1 nM; koff (Cyno IL-6R): 0.00611 s⁻¹; kon (Cyno IL-6R): 218000 M⁻¹ s⁻¹; IC50 (read off the curve) (Human plasma sIL-6R [8]): ~0.04 nM
B6 | – | – | – | – | – | – | 0.187 nM | – | – | – | – | Kd (Human soluble IL-6R [9]): 3 nM; IC50 (Human soluble IL-6R [11]): 0.105 nM; Kd (Human soluble IL-6R [12]): 3 nM; koff (Human soluble IL-6R [12]): 0.00147 s⁻¹ and 0.0016 s⁻¹; kon (Human soluble IL-6R [12]): 484000 M⁻¹ s⁻¹; Kd (Cyno IL-6R): 4.4 nM; koff (Cyno IL-6R): 0.00164 s⁻¹; kon (Cyno IL-6R): 370000 M⁻¹ s⁻¹; binding result (Mouse IL-6R): no binding (tested: 500 nM); IC50 (Human soluble IL-6R [13]): 0.72 nM; Kd (Human soluble IL-6R [14]): 3 nM; IC50 (nM), TF1 cell proliferation [15]: 62.1 nM; IC50 (Human soluble IL-6R [16]): 0.716 nM; IC50 (nM) XG-1 [17]: 16.2 nM; Ref Fab competition (%) (Human soluble IL-6R [18]): 5%; IC50 values (nM), XG-1 assay [19]: 17 nM; Residual reference-Fab binding to IL-6R (%) (Human soluble IL-6R [20]): 5%; koff (Human soluble IL-6R [21]): 0.0016 s⁻¹; IC50 (nM) + HSA, XG-1 cell proliferation [22]: 17.5 nM; IC50 (nM), XG-1 cell proliferation [22]: 16.2 nM
B7 | – | – | – | – | – | – | 0.336 nM | ≤ 2 fold | 2 nM | 0.0017 s⁻¹ | 850000 M⁻¹ s⁻¹ | –
B8 | – | – | – | – | – | – | 0.65 nM | ~4 fold | 3.7 nM | 0.00365 s⁻¹ | 990000 M⁻¹ s⁻¹ | –
B9 | – | – | – | – | – | – | 0.108 nM | ≤ 2 fold | – | 0.001 s⁻¹ | – | –
B10 | – | – | – | – | – | – | 0.28 nM | ≤ 2 fold | 2.2 nM | 0.00207 s⁻¹ | 929000 M⁻¹ s⁻¹ | –
